Paper PMC7251641

Substrate: Nc1ncnc2c1ncn2[C@@H]1O[C@H](COP(=O)(O)OP(=O)(O)OP(=O)(O)O)[C@@H](O)[C@H]1O
Experiment: real-time fluorescent phosphate-release ATPase assay
Assay type: biochemical, Saccharomyces cerevisiae
Conditions: nucleosome-stimulated, 15 nM nucleosomes, 23 °C

B1: SWI/SNF (Saccharomyces cerevisiae S288C) (protein)
chain: MNIPQRQFSNEEVNRCYLRWQHLRNEHGMNAPSVPEFIYLTKVLQFAAKQRQELQMQRQQQGISGSQQNIVPNSSDQAELPNNASSHISASASPHLAPNMQLNGNETFSTSAHQSPIMQTQMPLNSNGGNNMLPQRQSSVGSLNATNFSPTPANNGENAAEKPDNSNHNNLNLNNSELQPQNRSLQEHNIQDSNVMPGSQINSPMPQQAQMQQAQFQAQQAQQAQQAQQAQQAQARLQQGRRLPMTMFTAEQSELLKAQITSLKCLVNRKPIPFEFQAVIQKSINHPPDFKRMLLSLSEFARRRQPTDQNNQSNLNGGNNTQQPGTNSHYNNTNTDNVSGLTRNAPLDSKDENFASVSPAGPSSVHNAKNGTLDKNSQTVSGTPITQTESKKEENETISNVAKTAPNSNKTHTEQNNPPKPQKPVPLNVLQDQYKEGIKVVDIDDPDMMVDSFTMPNISHSNIDYQTLLANSDHAKFTIEPGVLPVGIDTHTATDIYQTLIALNLDTTVNDCLDKLLNDECTESTRENALYDYYALQLLPLQKAVRGHVLQFEWHQNSLLTNTHPNFLSKIRNINVQDALLTNQLYKNHELLKLERKKTEAVARLKSMNKSAINQYNRRQDKKNKRLKFGHRLIATHTNLERDEQKRAEKKAKERLQALKANDEEAYIKLLDQTKDTRITHLLRQTNAFLDSLTRAVKDQQKYTKEMIDSHIKEASEEVDDLSMVPKMKDEEYDDDDDNSNVDYYNVAHRIKEDIKKQPSILVGGTLKDYQIKGLQWMVSLFNNHLNGILADEMGLGKTIQTISLLTYLYEMKNIRGPYLVIVPLSTLSNWSSEFAKWAPTLRTISFKGSPNERKAKQAKIRAGEFDVVLTTFEYIIKERALLSKVKWVHMIIDEGHRMKNAQSKLSLTLNTHYHADYRLILTGTPLQNNLPELWALLNFVLPKIFNSVKSFDEWFNTPFANTGGQDKIELSEEETLLVIRRLHKVLRPFLLRRLKKDVEKELPDKVEKVVKCKMSALQQIMYQQMLKYRRLFIGDQNNKKMVGLRGFNNQIMQLKKICNHPFVFEEVEDQINPTRETNDDIWRVAGKFELLDRILPKLKATGHRVLIFFQMTQIMDIMEDFLRYINIKYLRLDGHTKSDERSELLRLFNAPDSEYLCFILSTRAGGLGLNLQTADTVIIFDTDWNPHQDLQAQDRAHRIGQKNEVRILRLITTNSVEEVILERAYKKLDIDGKVIQAGKFDNKSTSEEQEALLRSLLDAEEERRKKRESGVEEEEELKDSEINEILARNDEEMAVLTRMDEDRSKKEEELGVKSRLLEKSELPDIYSRDIGAELKREESESAAVYNGRGARERKTATYNDNMSEEQWLRQFEVSDDEKNDKQARKQRTKKEDKSEAIDGNGEIKGENIDADNDGPRINNISAEDRADTDLAMNDDDFLSKKRKAGRPRGRPKKVKLEGSENSEPPALESSPVTGDNSPSEDFMDIPKPRTAGKTSVKSARTSTRGRGRGRGRGRGRGRGRGRPPKARNGLDYVRTPAAATSPIDIREKVAKQALDLYHFALNYENEAGRKLSDIFLSKPSKALYPDYYMIIKYPVAFDNINTHIETLAYNSLKETLQDFHLIFSNARIYNTEGSVVYEDSLELEKVVTKKYCEIMGDNSQLDFTEFDEQYGTRPLVLPPVVTSSVAESFTDEADSSMTEASV
Km: 80.5 µM
